# Results published in patent US20100196393A1 (ST LOUIS UNIVERSITY, published 2010).
# No end group written: not given here.
# Experiments:
# [1] = molecular target: low density lipoprotein receptor-related protein-1 (LRP-1), mouse (mouse) (UniProt Q91ZX7); experiment: cell-based or functional assay
# [2] = molecular target: beta-F1 ATPase (ATP synthase beta subunit), mouse, on brain microvessels (mouse, UniProt P56480 47-529); experiment: cell-based or functional assay
# Chain of beta-F1 ATPase (ATP synthase beta subunit), mouse, on brain microvessels (P56480 47-529): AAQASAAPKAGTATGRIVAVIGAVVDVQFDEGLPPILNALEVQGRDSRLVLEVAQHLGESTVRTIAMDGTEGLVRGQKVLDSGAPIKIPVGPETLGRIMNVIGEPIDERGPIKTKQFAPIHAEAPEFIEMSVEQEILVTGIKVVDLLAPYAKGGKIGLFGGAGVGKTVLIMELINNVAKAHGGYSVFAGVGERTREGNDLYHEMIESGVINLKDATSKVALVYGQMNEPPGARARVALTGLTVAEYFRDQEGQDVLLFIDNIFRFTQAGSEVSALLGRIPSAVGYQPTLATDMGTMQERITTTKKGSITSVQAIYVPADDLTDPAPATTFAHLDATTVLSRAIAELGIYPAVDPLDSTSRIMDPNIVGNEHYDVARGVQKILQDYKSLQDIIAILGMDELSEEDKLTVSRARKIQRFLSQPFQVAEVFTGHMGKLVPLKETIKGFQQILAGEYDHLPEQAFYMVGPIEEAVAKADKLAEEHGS
# Chain of low density lipoprotein receptor-related protein-1 (LRP-1), mouse (mouse) (Q91ZX7 20-4545): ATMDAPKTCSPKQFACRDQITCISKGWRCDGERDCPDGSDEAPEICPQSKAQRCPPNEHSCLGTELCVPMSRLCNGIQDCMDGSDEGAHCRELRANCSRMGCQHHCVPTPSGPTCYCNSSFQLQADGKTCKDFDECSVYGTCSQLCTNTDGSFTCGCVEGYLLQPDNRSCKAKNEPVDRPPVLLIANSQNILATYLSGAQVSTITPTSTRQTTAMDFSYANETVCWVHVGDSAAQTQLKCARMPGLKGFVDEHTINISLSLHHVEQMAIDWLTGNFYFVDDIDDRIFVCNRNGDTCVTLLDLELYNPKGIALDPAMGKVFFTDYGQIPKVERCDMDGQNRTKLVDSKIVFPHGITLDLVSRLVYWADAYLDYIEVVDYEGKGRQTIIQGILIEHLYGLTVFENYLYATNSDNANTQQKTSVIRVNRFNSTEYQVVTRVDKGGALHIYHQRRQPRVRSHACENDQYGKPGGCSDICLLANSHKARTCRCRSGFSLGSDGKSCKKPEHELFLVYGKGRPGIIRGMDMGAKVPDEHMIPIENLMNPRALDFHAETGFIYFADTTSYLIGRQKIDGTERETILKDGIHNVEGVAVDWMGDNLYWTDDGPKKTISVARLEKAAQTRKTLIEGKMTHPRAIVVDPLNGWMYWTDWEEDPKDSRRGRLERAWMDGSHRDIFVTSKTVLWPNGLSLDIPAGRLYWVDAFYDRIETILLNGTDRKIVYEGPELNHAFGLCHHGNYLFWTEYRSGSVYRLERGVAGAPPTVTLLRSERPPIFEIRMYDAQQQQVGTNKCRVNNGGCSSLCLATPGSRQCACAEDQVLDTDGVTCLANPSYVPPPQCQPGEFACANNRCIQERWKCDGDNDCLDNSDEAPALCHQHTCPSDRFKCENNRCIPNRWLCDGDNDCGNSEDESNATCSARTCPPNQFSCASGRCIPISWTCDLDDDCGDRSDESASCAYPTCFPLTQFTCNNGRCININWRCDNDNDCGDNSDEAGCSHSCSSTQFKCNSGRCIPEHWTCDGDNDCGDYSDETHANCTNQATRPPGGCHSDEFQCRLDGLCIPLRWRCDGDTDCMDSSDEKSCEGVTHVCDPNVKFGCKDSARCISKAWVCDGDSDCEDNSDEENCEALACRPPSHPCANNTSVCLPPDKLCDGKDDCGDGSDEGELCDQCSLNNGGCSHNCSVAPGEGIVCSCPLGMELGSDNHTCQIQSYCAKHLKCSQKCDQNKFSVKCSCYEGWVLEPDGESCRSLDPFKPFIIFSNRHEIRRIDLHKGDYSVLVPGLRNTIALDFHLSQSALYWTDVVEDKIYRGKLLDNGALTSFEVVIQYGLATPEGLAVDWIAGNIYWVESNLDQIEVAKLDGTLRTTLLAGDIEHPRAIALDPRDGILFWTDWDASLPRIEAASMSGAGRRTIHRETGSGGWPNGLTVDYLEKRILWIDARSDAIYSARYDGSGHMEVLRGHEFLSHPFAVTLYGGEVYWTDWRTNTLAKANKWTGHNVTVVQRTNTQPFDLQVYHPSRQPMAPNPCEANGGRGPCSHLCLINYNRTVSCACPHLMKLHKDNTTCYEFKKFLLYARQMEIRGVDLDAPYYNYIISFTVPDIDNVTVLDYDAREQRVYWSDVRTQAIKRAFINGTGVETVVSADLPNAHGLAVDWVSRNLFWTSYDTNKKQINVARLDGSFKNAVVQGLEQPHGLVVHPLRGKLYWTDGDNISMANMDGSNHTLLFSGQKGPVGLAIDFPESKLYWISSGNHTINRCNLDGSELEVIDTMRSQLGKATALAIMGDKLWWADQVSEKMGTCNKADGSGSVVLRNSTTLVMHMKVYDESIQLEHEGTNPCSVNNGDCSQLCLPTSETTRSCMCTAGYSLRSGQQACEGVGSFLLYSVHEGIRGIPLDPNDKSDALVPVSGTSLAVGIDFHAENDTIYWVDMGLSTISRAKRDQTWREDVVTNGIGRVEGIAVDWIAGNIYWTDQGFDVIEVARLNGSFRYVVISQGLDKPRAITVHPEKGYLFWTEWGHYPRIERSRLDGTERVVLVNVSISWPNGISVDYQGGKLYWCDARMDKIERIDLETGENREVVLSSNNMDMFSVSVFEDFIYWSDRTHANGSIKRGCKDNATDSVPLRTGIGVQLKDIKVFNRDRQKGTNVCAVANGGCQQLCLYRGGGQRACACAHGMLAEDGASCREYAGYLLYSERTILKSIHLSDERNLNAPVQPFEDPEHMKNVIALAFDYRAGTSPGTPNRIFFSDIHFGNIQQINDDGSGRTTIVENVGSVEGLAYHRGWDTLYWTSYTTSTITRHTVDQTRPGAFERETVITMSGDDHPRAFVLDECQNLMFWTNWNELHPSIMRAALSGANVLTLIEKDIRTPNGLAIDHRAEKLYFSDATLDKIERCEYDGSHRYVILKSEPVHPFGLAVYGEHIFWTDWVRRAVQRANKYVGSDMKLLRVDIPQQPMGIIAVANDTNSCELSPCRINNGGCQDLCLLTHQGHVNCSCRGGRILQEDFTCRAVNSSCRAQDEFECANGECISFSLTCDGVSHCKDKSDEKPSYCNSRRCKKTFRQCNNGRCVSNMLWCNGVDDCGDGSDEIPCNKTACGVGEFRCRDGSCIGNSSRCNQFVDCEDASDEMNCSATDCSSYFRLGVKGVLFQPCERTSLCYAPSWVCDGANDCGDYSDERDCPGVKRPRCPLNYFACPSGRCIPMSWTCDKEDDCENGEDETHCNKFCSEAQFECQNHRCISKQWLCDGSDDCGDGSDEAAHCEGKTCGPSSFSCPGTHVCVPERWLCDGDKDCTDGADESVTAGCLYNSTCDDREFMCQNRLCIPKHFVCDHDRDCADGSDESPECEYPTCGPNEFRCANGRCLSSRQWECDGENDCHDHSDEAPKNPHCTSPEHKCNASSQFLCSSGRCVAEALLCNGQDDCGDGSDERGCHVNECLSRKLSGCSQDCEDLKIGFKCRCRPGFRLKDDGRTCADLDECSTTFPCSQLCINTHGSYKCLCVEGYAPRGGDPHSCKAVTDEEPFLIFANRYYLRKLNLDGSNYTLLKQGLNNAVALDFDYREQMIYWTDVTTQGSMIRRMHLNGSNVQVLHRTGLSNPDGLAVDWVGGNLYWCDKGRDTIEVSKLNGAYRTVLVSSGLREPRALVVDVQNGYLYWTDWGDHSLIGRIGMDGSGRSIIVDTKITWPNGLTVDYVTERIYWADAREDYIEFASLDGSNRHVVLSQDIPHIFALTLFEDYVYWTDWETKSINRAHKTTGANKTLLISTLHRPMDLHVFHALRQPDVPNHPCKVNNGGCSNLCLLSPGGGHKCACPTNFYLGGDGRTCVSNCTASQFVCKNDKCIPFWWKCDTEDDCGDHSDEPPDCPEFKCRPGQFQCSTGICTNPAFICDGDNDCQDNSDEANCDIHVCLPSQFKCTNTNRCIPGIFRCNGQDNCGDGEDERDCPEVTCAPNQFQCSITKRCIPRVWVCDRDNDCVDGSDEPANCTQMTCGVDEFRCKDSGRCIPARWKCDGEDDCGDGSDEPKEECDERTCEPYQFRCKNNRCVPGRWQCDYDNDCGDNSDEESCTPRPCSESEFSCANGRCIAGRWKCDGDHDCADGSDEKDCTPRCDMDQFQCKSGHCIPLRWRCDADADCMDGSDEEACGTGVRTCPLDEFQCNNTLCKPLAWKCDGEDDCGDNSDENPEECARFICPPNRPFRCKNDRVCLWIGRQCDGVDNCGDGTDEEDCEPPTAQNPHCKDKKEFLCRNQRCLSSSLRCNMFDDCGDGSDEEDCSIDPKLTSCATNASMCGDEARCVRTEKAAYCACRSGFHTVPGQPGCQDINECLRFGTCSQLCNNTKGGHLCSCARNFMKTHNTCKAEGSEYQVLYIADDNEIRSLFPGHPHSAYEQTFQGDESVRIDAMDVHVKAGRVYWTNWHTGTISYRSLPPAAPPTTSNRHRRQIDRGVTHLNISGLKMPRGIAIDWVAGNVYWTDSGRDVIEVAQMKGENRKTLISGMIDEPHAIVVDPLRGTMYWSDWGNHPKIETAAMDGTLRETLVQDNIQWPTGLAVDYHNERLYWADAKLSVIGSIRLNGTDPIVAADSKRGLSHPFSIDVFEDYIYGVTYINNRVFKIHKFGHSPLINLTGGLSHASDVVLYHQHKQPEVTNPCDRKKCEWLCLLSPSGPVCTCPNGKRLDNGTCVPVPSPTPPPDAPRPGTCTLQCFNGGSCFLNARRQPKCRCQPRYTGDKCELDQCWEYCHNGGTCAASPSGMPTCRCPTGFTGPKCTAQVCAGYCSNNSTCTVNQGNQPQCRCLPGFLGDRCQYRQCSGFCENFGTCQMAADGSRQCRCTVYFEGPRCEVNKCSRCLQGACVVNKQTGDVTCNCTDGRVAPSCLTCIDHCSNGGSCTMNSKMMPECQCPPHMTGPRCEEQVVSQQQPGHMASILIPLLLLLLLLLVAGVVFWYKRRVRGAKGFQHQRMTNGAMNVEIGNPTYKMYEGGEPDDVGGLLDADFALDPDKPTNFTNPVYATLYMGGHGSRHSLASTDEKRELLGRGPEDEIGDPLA
"brain efflux of icv I-Aβ42 after two iv injections of anti-LRP-1 antisense cocktail, relative to saline treated mice [1] [%]","uptake of I-PACAP27 delivered by brain perfusion, 24 h after iv antisense cocktail against beta-F1 ATPase [2] [fold]",Molecule
0.87,–,42 amino acid murine amyloid beta (Aβ42) (from UniProt P12023 672-713) (peptide)
–,4,"HSDGIFTDSYSRYRKQMAVKKYLAAVL (peptide, UniProt P18509 132-158, looked up, ends and bridges not checked; also: 131I radioiodinated, residue not given here) [PACAP27 (pituitary adenylate cyclase-activating polypeptide, 27 amino acid form)]"
